In patent publication EP0659766A1:

Biological target: T1, IL-1 receptors expressed on murine thymoma EL4 cells (murine) (UniProt P13504)
T1 sequence (looked up): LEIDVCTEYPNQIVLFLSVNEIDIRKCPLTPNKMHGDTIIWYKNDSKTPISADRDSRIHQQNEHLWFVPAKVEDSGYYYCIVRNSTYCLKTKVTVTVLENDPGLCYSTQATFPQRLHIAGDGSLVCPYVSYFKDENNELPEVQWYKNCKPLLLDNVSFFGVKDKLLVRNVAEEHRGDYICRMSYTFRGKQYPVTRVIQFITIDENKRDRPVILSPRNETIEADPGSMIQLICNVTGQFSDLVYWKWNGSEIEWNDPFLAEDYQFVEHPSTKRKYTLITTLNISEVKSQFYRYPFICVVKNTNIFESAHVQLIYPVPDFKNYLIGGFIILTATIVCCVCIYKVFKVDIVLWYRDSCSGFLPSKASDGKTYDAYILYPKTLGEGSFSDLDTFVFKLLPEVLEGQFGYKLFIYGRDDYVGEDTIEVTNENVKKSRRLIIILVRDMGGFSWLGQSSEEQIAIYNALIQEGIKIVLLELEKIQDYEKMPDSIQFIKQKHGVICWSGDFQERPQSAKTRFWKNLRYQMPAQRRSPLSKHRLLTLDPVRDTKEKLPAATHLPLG
Assay: binding of 70 pM human ¹²⁵I-IL-1α to 1 x 10⁶ EL4 cells, no serum

¹²⁵I-IL-1α bound to EL4 cells (cpm): 4520 cpm
B1: recombinant human IL-1 alpha (IL-1α) (ligand, UniProt P01583 113-271, looked up)
chain: SAPFSFLSNVKYNFMRIIKYEFILNDALNQSIIRANDQYLTAAALHNLDEAVKFDMGAYKSSKDDAKITVILRISKTQLYVTAQDEDQPVLLKEMPEIPKTITGSETNLLFFWETHGTKNYFTSVAHPNLFIATKQDYWVCLAGGPPSITDFQILENQA
